Measured values from PMC2275666 (The EMBO Journal, 2008).
Positions count from the first letter of the chain named.

Columns and labels:
Assay in all cases: pull-down
[1] = target: T1, 6H–hTFIIEα E383A (human, UniProt P29083 1-439, E383A)
T1 sequence: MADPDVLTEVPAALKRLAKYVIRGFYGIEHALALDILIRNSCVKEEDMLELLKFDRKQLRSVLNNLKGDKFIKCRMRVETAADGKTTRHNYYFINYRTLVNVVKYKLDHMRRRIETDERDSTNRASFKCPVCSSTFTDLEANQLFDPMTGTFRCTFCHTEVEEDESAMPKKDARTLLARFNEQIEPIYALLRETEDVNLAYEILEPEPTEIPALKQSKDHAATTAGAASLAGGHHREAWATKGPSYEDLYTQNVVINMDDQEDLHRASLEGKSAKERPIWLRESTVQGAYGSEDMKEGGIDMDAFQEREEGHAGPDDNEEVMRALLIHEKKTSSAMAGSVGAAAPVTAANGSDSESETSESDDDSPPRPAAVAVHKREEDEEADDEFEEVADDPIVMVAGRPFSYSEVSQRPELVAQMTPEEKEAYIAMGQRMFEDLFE

[2] = target: T2, 6H–hTFIIEα wild type (full-length hTFIIEα) (human, UniProt P29083 1-439)
T2 sequence: T1 sequence with A383E

[3] = target: T3, 6H–hTFIIEα D393A (human, UniProt P29083 1-439, D393A)
T3 sequence: T1 sequence with A383E, D393A

[4] = target: T4, 6H–hTFIIEα S365A (human, UniProt P29083 1-439, S365A)
T4 sequence: T1 sequence with S365A, A383E

[5] = target: T5, 6H–hTFIIEα D380A (human, UniProt P29083 1-439, D380A)
T5 sequence: T1 sequence with D380A, A383E

binding result [1]: binds | binding result [2]: binds | binding result [3]: binds | binding result [4]: binds | binding result [5]: binds
B1: GST-tagged hTFIIEβ (natural protein)
chain: MDPSLLRERELFKKRALSTPVVEKRSASSESSSSSSKKKKTKVEHGGSSGSKQNSDHSNGSFNLKALSGSSGYKFGVLAKIVNYMKTRHQRGDTHPLTLDEILDETQHLDIGLKQKQWLMTEALVNNPKIEVIDGKYAFKPKYNVRDKKALLRLLDQHDQRGLGGILLEDIEEALPNSQKAVKALGDQILFVNRPDKKKILFFNDKSCQFSVDEEFQKLWRSVTVDSMDEEKIEEYLKRQGISSMQESGPKKVAPIQRRKKPASQKKRRFKTHNEHLAGVLKDYSDITSSK
